Source: PMC12381214, “Multi-state catch bond formed in the Izumo1:Juno complex that initiates human fertilization” (Nature Communications, 2025)

B1: human Izumo1 ectodomain, wild type (Izumo1-His10-SpyTag-LPETGG) (domain or fragment)
chain: CVICDPSVVLALKSLEKDYLPGHLDAKHHKAMMERVENAVKDFQELSLNEDAYMGVVDEATLQKGSWSLLKDLKRITDSDVKGDLFVKELFWMLHLQKETFATYVARFQKEAYCPNKCGVMLQTLIWCKNCKKEVHACRKSYDCGERNVEVPQMEDMILDCELNWHQASEGLTDYSFYRVWGNNTETLVSKGKEATLTKPMVGPEDAGSYRCELGSVNSSPATIINFHVTVLP
modifications: glycosylated (sites not given); SpyTag joined by an isopeptide bond to a SpyCatcher polyprotein
notes: Izumo1, human, ectodomain (ECD), UniProt Q8IYV9; the stretch between the HEM signal peptide and His10 in the printed construct; also called HEM-Izumo1-His10-SpyTag-LPETGG; Izumo1-GFP; source: Sf9 (ExpiSF) cells, baculovirus, secreted, purified (Ni resin, SEC); not shown: HEM secretion signal peptide, N-terminal, cleaved; His10, C-terminal, kept; SpyTag, C-terminal, kept; LPETGG sortase motif, …
B2: human Izumo1 ectodomain R160A (Izumo1R160A-His10-SpyTag-LPETGG) (domain or fragment)
chain: CVICDPSVVLALKSLEKDYLPGHLDAKHHKAMMERVENAVKDFQELSLNEDAYMGVVDEATLQKGSWSLLKDLKRITDSDVKGDLFVKELFWMLHLQKETFATYVARFQKEAYCPNKCGVMLQTLIWCKNCKKEVHACAKSYDCGERNVEVPQMEDMILDCELNWHQASEGLTDYSFYRVWGNNTETLVSKGKEATLTKPMVGPEDAGSYRCELGSVNSSPATIINFHVTVLP
modifications: glycosylated (sites not given); SpyTag joined by an isopeptide bond to a SpyCatcher polyprotein
notes: Izumo1, human, ectodomain (ECD), UniProt Q8IYV9, with R160A; also called HEM-Izumo1R160A-His10-SpyTag-LPETGG; source: Sf9 (ExpiSF) cells, baculovirus, secreted, purified (Ni resin, SEC); not shown: HEM secretion signal peptide, N-terminal, cleaved; His10, C-terminal, kept; SpyTag, C-terminal, kept; LPETGG sortase motif, C-terminal, kept
B3: human Izumo1 ectodomain K150A (Izumo1K150A-His10-SpyTag-LPETGG) (domain or fragment)
chain: CVICDPSVVLALKSLEKDYLPGHLDAKHHKAMMERVENAVKDFQELSLNEDAYMGVVDEATLQKGSWSLLKDLKRITDSDVKGDLFVKELFWMLHLQKETFATYVARFQKEAYCPNKCGVMLQTLIWCANCKKEVHACRKSYDCGERNVEVPQMEDMILDCELNWHQASEGLTDYSFYRVWGNNTETLVSKGKEATLTKPMVGPEDAGSYRCELGSVNSSPATIINFHVTVLP
modifications: glycosylated (sites not given); SpyTag joined by an isopeptide bond to a SpyCatcher polyprotein
notes: Izumo1, human, ectodomain (ECD), UniProt Q8IYV9, with K150A; also called HEM-Izumo1K150A-His10-SpyTag-LPETGG; source: Sf9 (ExpiSF) cells, baculovirus, secreted, purified (Ni resin, SEC); not shown: HEM secretion signal peptide, N-terminal, cleaved; His10, C-terminal, kept; SpyTag, C-terminal, kept; LPETGG sortase motif, C-terminal, kept
B4: human Izumo1 ectodomain E71A (Izumo1E71A-His10-SpyTag-LPETGG) (domain or fragment)
chain: CVICDPSVVLALKSLEKDYLPGHLDAKHHKAMMERVENAVKDFQELSLNADAYMGVVDEATLQKGSWSLLKDLKRITDSDVKGDLFVKELFWMLHLQKETFATYVARFQKEAYCPNKCGVMLQTLIWCKNCKKEVHACRKSYDCGERNVEVPQMEDMILDCELNWHQASEGLTDYSFYRVWGNNTETLVSKGKEATLTKPMVGPEDAGSYRCELGSVNSSPATIINFHVTVLP
modifications: glycosylated (sites not given); SpyTag joined by an isopeptide bond to a SpyCatcher polyprotein
notes: Izumo1, human, ectodomain (ECD), UniProt Q8IYV9, with E71A; also called HEM-Izumo1E71A-His10-SpyTag-LPETGG; source: Sf9 (ExpiSF) cells, baculovirus, secreted, purified (Ni resin, SEC); not shown: HEM secretion signal peptide, N-terminal, cleaved; His10, C-terminal, kept; SpyTag, C-terminal, kept; LPETGG sortase motif, C-terminal, kept
B5: human Izumo1 ectodomain H157A (Izumo1H157A-His10-SpyTag-LPETGG) (domain or fragment)
chain: CVICDPSVVLALKSLEKDYLPGHLDAKHHKAMMERVENAVKDFQELSLNEDAYMGVVDEATLQKGSWSLLKDLKRITDSDVKGDLFVKELFWMLHLQKETFATYVARFQKEAYCPNKCGVMLQTLIWCKNCKKEVAACRKSYDCGERNVEVPQMEDMILDCELNWHQASEGLTDYSFYRVWGNNTETLVSKGKEATLTKPMVGPEDAGSYRCELGSVNSSPATIINFHVTVLP
modifications: glycosylated (sites not given); SpyTag joined by an isopeptide bond to a SpyCatcher polyprotein
notes: Izumo1, human, ectodomain (ECD), UniProt Q8IYV9, with H157A; also called HEM-Izumo1H157A-His10-SpyTag-LPETGG; source: Sf9 (ExpiSF) cells, baculovirus, secreted, purified (Ni resin, SEC); not shown: HEM secretion signal peptide, N-terminal, cleaved; His10, C-terminal, kept; SpyTag, C-terminal, kept; LPETGG sortase motif, C-terminal, kept

How the values were obtained:
Conditions in all cases: both partners purified
[1] = molecular target: T1, human Juno ectodomain, wild type (Juno-His10-SpyTag-LPETGG) (human, glycosylated (sites not given); SpyTag joined by an isopeptide bond to a SpyCatcher polyprotein); experiment: flow cytometry-based bead-binding assay; Juno held on 3.75 µm polystyrene beads through the ybbR AFM-handle; Izumo1 labelled with SpyCatcher-GFP, 5-fold dilution series of 7 dilutions from 100x the expected KD, 3 h, 0.1% tween 20 in TBS-G (20 mM Tris-HCl, 300 mM NaCl, 10% glycerol, pH 8.0); Hill equation fitted
T1 construct: Juno, human, ectodomain (ECD), UniProt A6ND01; the stretch between the HBM signal peptide and His10 in the printed construct; the printed construct has a D between the signal's ...YIYA and G20 that may stay on the mature protein; also called Folr4; Izumo1r; source: Sf9 (ExpiSF) cells, baculovirus, secreted, purified (Ni resin, SEC); not shown: HBM secretion signal peptide, N-terminal, cleaved; …

[2] = molecular target: T2, human Juno ectodomain H177Q, infertility-associated variant (JunoH177Q-His10-SpyTag-LPETGG) (human, H177Q (stands in the printed letters), glycosylated (sites not given); SpyTag joined by an isopeptide bond to a SpyCatcher polyprotein); experiment: as above
T2 construct: Juno, human, ectodomain (ECD), UniProt A6ND01, natural variant H177Q found in patients; also called HBM-JunoH177Q-His10-SpyTag-LPETGG; source: Sf9 (ExpiSF) cells, baculovirus, secreted, purified (Ni resin, SEC); not shown: HBM secretion signal peptide, N-terminal, cleaved; His10, C-terminal, kept; SpyTag, C-terminal, kept; LPETGG sortase motif, C-terminal, kept

[3] = molecular target: T1, human Juno ectodomain, wild type …; experiment: AFM single-molecule force spectroscopy (constant speed); Izumo1 on the cantilever and Juno on the cover glass, each covalently held by its C-terminus through a ddFLN4-ELP-ybbR handle; contact 0.2 s, retraction at 800, 1600, 3200, 6400 nm·s^−1; PBS pH 7.4

T1 sequence (chain, as listed by the source): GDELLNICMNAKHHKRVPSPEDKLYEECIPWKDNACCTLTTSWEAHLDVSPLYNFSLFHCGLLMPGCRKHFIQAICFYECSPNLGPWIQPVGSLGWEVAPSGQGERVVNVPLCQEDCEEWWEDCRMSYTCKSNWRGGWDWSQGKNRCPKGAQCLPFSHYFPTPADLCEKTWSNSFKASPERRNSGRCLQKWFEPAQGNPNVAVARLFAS
T2 sequence (chain, as listed by the source with the stated changes): as the sequence (chain, as listed by the source) above, with H158Q counted along it

| Binder | Kd [1] [µM] | Kd [2] [µM] | binding result [3] |
| --- | --- | --- | --- |
| B1 | 0.045 | 0.064 |  |
| B2 |  |  | binds |
| B3 | 0.11 |  |  |
| B4 |  |  | binds |
| B5 |  |  | binds |
